Patent US20210277067A1

Target: HCMV pentameric complex gH/gL/pUL128/pUL130/pUL131A (wild type Pentamer) (HCMV strain Merlin) (UniProt Q6SW67)
Experiment: method not stated

In the case of “8I21 with HCDR3 Trp105 mutated to alanine (Fab)”, the fold decrease in binding affinity (against unmutated 8I21) is reported as greater than 150 fold.
